Entries after “also recorded” stand apart in the source; their conditions may differ. Where two headings read alike, the source gives them in different places.
Columns and labels:
Assay type in all cases: cell-based
E. coli = test: Effect of induced expression of cloned SPO1 genes on growth and viability of E. coli (liquid medium and colony formation); settings: cloned gene(s) expressed from IPTG-inducible promoter, * = lethality conclusion based on failure to clone, ** = data not conclusive
Excerpt: (§1) For analysis of antimicrobial activity we first cloned most of the 24 host-takeover genes (genes 37-60) singly or in multiple gene combinations into a B. subtilis/E. coli shuttle vector (pPW19) under control of an IPTG-inducible promoter (Wei and Stewart, 1993). […] These remaining genes are being cloned using expression vectors with more tightly regulated promoters, such as pJONEX4 (Sayers, 1996), pET101, or pX (Kim et al., 1996). The transformed E. coli and B. subtilis were used to determine the antimicrobial activity, if any, of the cloned genes. The effect of induction on bacterial growth and viability was measured both in liquid medium and by colony formation. Definitive establishment of lethality was shown by loss of the ability to form colonies even after removal from the inducing agent. Indication of probable lethality was based on total inability to form colonies under inducing conditions.

bacteria = test: Toxicity or lethality of expression of cloned SPO1 genes, bacterium not given
Excerpt: as §1
In cells growing in liquid medium, expression of the cloned gene 44 was induced at time 0. At subsequent times, the number of cells remaining viable was measured by plating in the absence of inducer. More than 99% of the cells were killed within three hours.

B. subtilis = test: Effect of induced expression of cloned SPO1 genes on growth and viability of B. subtilis (liquid medium and colony formation); settings: cloned gene(s) expressed from IPTG-inducible promoter, * = lethality conclusion based on failure to clone, ** = data not conclusive
Excerpt: as §1

“Gene 37: product of SPO1 host-takeover gene 37, SEQ ID NO: 1 (MSDVIIPFLTSAVTAFIVAYLLDRWYIKRRR; SPO1 Bacteriophage)” was tested, and the “Lethality, E. coli” value (E. coli) was “Lethal *” and the “toxicity or lethality of expression” value (bacteria) was “lethal”.

With “Gene 58: product of SPO1 host-takeover gene 58, SEQ ID NO: 22 (MTLAGYRVDSCNGCGKAYLVGESHDRKKCAECASK; SPO1 Bacteriophage)” the “Lethality, E. coli” value (E. coli) was “Mildly toxic” and the “Lethality, B. subtilis” value (B. subtilis) was “No effect”.

B1: Gene 45: product of SPO1 host-takeover gene 45, SEQ ID NO: 9 (protein)
chain: MMMDKQVEEVKKHYPIVEDWSVIVARKEDDCMTVTDAVPFILAGYKNVSYEMDDIVVLCSEPIGLTWEDVRFLKNHEGSVSFEEIGYEDKAMVYHVDLG
modifications: SPO1 Bacteriophage
B1 was tested, and the “Lethality, E. coli” value (E. coli) was “Toxic”, the “Lethality, B. subtilis” value (B. subtilis) was “Mildly Toxic” and the “toxicity or lethality of expression” value (bacteria) was “toxic but not lethal”.

B2: Gene 38: product of SPO1 host-takeover gene 38, SEQ ID NO: 2 (protein)
chain: MSVQIKHGNKTFVVDPSGDVKEGSYVLYLYEYRLGEVDVGRVSEVANDGRLYLDGPGVIVTLDQPFILLKEVVEEEEDEDDRIDAEFHNDPLLRKLENTTEKLTPEETQLAQWTTMTRVFSHDLKKGIPYAIKHKNSGNILYGLYSGLLNPVTALFRHLNEESKISIEQLKSGLIEIYEVVEDEEESIWN
modifications: SPO1 Bacteriophage
B2 was tested, and the “Lethality, E. coli” value (E. coli) was “Highly toxic” and the “Lethality, B. subtilis” value (B. subtilis) was “No effect **”.

B3: Gene 52: product of SPO1 host-takeover gene 52, SEQ ID NO: 16 (protein)
chain: MTHFISIATYIYALVSAGFIGGWHDEESWIKDTEYEHGGYHMIIDTPAVVNYSLEYGNYQWIFQKYMKEGKVTVERFYRNSLDIPKEILTDEALAFIKDWDENANEYELHAGEGVLYFKYEGEEKGYVIPMAYAGEIMFVPDEDAEKALEIINSQKKY
modifications: SPO1 Bacteriophage
For B3, the “Lethality, E. coli” value (E. coli; listed as 52) was “Lethal”.

B4: Gene 48: product of SPO1 host-takeover gene 48, SEQ ID NO: 12 (protein)
chain: MPYSKITVPVLVGEGLTEWDVIDVMRETHPPTVEDQYHYHTFDSMQNRTIFVLENPLYPDVDKIPEKVLGIAVDALEDMLDNVPVEDLPVTEEQGNVKRFTTKLASIVFDVFLIIPDFVSVTAKEE
modifications: SPO1 Bacteriophage
In the case of B4, the “Lethality, E. coli” value (E. coli; listed as 48) is reported as “strongly toxic but not lethal; also recorded: Strongly Toxic” and the “Lethality, B. subtilis” value (B. subtilis; listed as 48) is reported as “strongly toxic but not lethal; also recorded: Strongly Toxic”.

B5: Gene 46: product of SPO1 host-takeover gene 46, SEQ ID NO: 10 (protein)
chain: MMTEDQKFKYLTKIEELEAGCFSDWTKEDITGDLKYLKKGIIEESIELIRAVNGLTYSEELHDFTQEIIEELDISPL
modifications: SPO1 Bacteriophage
With B5 the “Lethality, E. coli” value (E. coli) was “Lethal”, the “Lethality, B. subtilis” value (B. subtilis) was “Mildly Toxic” and the “toxicity or lethality of expression” value (bacteria) was “lethal but with diminished efficiency”.

B6: Gene 42: product of SPO1 host-takeover gene 42, SEQ ID NO: 6 (protein)
chain: MRKFVTTLTASPRNKKVGNHRLEISPFVSLRRYYYFNTAICIENPVTREFAIDDSYGSLSTNQNCAQYRQYFSLGGYKEVSLEEIHAV
modifications: SPO1 Bacteriophage
B6 was tested, and the “Lethality, E. coli” value (E. coli; listed as 42) was “no toxic effect” and the “Lethality, B. subtilis” value (B. subtilis; listed as 42) was “no toxic effect”.

B7: Gene 39: product of SPO1 host-takeover gene 39, SEQ ID NO: 3 (protein)
chain: MELNLDIYVDYKDKRYKAEGYYGPSVGDLVLIFMDMELEGATVQEVARIEGSEIHLRTPNGNEPSYRYMGQYLILKPYGSSDPRGDILVHEDVQYVRVDAQAMPGDLIEALEPNKLPFSGKRFKYRPAVLEVEYVLTKDEQVLQLENGKSYSGAYRVLIPRMGVLPPKTHIYTTHKHVFMEDVFVLGNSYELSSPNDVEMTPIHAVFTGFSKNRDEAIFVNPYYNDDGVTGTMITVSDLLTGKWDITPLVPKKGV
modifications: SPO1 Bacteriophage
In the case of B7, the “Lethality, E. coli” value (E. coli) is reported as “Lethal” and the “toxicity or lethality of expression” value (bacteria; listed as 39) is reported as “lethal effect”.

B8: Gene 40: product of SPO1 host-takeover gene 40, SEQ ID NO: 4 (protein)
chain: MHIYTYWGLKYVPSNSTMVAKEGDLILLGNEVHKVVKVLHRFRNITDLQITNWKGTETRYNLHVTEYKVLVPYDTHKEENEAMSDSLITHNGKDYVLCKIPARVGDLIRTEDKRVWEVLQKSKDGLVLYNEEKGEQRSAVYSEIGPYHVLVPRDTDTHTPTREELAAVIMNKAFTRTETQDSQEDTGTHKGLGLTGTDLYHSLRDLDAKVQSGYYTATENEEDVKSEIEATKKHMKAVKESGKTVNDYRKEENTKRCKLKALTNKFNRLFLKSVIDTDSLQVGKAYLIGGRDMKNVHGLYTGTTFDQQHANFLIVETDRMHRTLTVSAEQLFAEERHIVDIEKRVEQTED
modifications: SPO1 Bacteriophage
In the case of B8, the “Lethality, E. coli” value (E. coli; listed as 40) is reported as “only mildly toxic” and the “Lethality, B. subtilis” value (B. subtilis; listed as 40) is reported as “only mildly toxic; also recorded: Inconsistent”.

B9: Gene 43: product of SPO1 host-takeover gene 43, SEQ ID NO: 7 (protein)
chain: MIQLSERQQDLLQVAEKYEQCHIEFYTAQSRLFGTEIMGEVVKTSLGTLKIAHPEEDLFEVALAYLASKKDILTAQERKDVLFYIQNNLC
modifications: SPO1 Bacteriophage
With B9 the “Lethality, E. coli” value (E. coli; listed as 43) was “too inconsistent to permit any conclusion; also recorded: Indeterminate” and the “Lethality, B. subtilis” value (B. subtilis; listed as 43) was “too inconsistent to permit any conclusion; also recorded: Indeterminate”.

B10: Gene 47: product of SPO1 host-takeover gene 47, SEQ ID NO: 11 (protein)
chain: MDWTKMTFMGTVDEVKEIWNGLEEAGRLYAVWLSDDHVYGIVDVNEEGLFCLGWVSDISPESLQNMLGGGAELFESYEDVLSEHGGSIAIRVEV
modifications: SPO1 Bacteriophage
For B10, the “Lethality, E. coli” value (E. coli; listed as 47) was “little or no effect; also recorded: No effect” and the “Lethality, B. subtilis” value (B. subtilis; listed as 47) was “little or no effect; also recorded: No effect”.

B11: Gene 57: product of SPO1 host-takeover gene 57, SEQ ID NO: 21 (protein)
chain: MTLFIAGVTLEEVREATVSALFVKLEQEKKALYLGAGSEDSLNLCKSTLDKVQEDYPLDDMEKDYLRDLLQFWLSRLFLGDGFEGEIPDSSEDLRRTATTAFTYTAAIRHYCM
modifications: SPO1 Bacteriophage
With B11 the “Lethality, E. coli” value (E. coli) was “Mildly toxic” and the “Lethality, B. subtilis” value (B. subtilis) was “No effect”.

B12: Gene 41: product of SPO1 host-takeover gene 41, SEQ ID NO: 5 (protein)
chain: MEKLPNTVVKVHGEGMESKLFPRKLHKDTNSILREDLVSACQEHIEALVEGMIAHGDGRKVAELDTSTQYYWHLKLVEYTPIPGRTQHYVDLVDGTNPDVCYFSLCDCSGDNITDRRWSNMVKRLQNPEEDIAKTLRCYFRQDAGMPSWIEYPQ
modifications: SPO1 Bacteriophage
With B12 the “Lethality, E. coli” value (E. coli; listed as 41) was “only a mild effect; also recorded: Mildly Toxic” and the “Lethality, B. subtilis” value (B. subtilis; listed as 41) was “lethal; also recorded: Lethal *”.
